Measurements as given in patent publication US6942988.

The substances below were run against carboxyl-terminal Myc-tagged Ptc-CTD (mouse Ptc with a 140-residue carboxyl-terminal deletion; amino acids 1-1,291) (mouse) (UniProt Q61115) (assay: binding of 32P-Shh-N to EcR-293 cells expressing Ptc-CTD without competitor).
carboxyl-terminal Myc-tagged Ptc-CTD (mouse Ptc with a 140-residue carboxyl-terminal deletion; amino acids 1-1,291) (mouse), sequence (Q61115 1-1291, stated change not applied): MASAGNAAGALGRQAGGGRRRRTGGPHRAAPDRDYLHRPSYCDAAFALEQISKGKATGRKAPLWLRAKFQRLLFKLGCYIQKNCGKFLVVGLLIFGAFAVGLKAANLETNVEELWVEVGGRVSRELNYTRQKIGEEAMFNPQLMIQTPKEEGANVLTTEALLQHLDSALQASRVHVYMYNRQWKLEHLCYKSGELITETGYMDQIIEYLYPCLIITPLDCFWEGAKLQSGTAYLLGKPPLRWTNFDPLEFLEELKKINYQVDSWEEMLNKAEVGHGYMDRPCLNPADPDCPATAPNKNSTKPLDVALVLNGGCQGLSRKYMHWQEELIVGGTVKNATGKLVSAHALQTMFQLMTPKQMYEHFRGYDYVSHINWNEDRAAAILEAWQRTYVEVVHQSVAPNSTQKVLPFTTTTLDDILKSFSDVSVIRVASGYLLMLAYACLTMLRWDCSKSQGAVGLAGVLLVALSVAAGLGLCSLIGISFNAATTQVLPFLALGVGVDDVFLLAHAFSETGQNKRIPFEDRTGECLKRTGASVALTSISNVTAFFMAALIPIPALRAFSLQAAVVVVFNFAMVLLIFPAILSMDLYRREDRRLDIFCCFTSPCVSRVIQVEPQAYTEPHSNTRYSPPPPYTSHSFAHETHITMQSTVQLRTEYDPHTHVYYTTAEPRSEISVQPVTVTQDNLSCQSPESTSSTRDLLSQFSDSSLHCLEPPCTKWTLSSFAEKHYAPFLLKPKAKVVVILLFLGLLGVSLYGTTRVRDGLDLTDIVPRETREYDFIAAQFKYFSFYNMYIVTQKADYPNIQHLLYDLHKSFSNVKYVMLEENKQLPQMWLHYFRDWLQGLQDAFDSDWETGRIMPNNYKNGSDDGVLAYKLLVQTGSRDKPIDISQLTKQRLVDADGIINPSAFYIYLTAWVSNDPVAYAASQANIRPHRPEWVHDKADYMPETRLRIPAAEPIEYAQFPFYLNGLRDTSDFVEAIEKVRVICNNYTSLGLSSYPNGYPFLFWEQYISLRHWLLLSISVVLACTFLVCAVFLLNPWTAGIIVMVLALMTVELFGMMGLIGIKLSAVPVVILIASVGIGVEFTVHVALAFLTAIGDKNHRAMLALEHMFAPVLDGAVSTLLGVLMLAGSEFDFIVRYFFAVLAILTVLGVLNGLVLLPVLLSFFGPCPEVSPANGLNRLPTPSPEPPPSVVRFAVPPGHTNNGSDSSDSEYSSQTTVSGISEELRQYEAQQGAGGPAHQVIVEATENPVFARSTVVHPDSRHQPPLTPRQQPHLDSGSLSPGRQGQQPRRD

Substance | percent of input bound in the absence of competitor
32P-labeled Shh-N protein with a protein kinase A site tag (RRASV) at the carboxy terminus (from UniProt Q62226 25-198) (ligand) | 35 % of input

What follows are substances tested against carboxyl-terminal Myc-tagged Ptc-CTD (mouse Ptc with a 140-residue carboxyl-terminal deletion; amino acids 1-1,291) (mouse) (UniProt Q61115) (assay: competition with 0.9 nM 32P-Shh-N for binding to EcR-293 cells expressing Ptc-CTD, 4 C; KI from IC50).

Substance | Ki
Shh-N H135A (HA) mutant protein (from UniProt Q62226 25-198) (ligand) | 0.63 nM
Shh-N SB altered protein (N51A, V52A, T56A, E168A) (from UniProt Q62226 25-198) (ligand) | 0.48 nM
Shh-N SF protein (R154A, S157A) (from UniProt Q62226 25-198) (ligand) | 9.1 nM
Shh-N H135A, E177A double mutant (EH) protein (from UniProt Q62226 25-198) (ligand) | 1.7 nM
Shh-N SG protein (S178A, K179A) (from UniProt Q62226 25-198) (ligand) | 4.3 nM
Shh-N E177A (EA) mutant protein (from UniProt Q62226 25-198) (ligand) | 1.7 nM
Shh-N SE protein (P42A, K46A) (from UniProt Q62226 25-198) (ligand) | 2.4 nM
Shh-N SD altered protein (E90A, D132A, E138A) (from UniProt Q62226 25-198) (ligand) | 0.84 nM
Shh-N SC mutant protein (P42A, K46A, R154A, S157A, S178A, K179A) (from UniProt Q62226 25-198) (ligand) | > 36 nM
Shh-N SA altered protein (K75A, E76A, Y81A, D105A, N116A, E189A, K195A) (from UniProt Q62226 25-198) (ligand) | 0.66 nM

The substances below were run against carboxyl-terminal Myc-tagged Ptc-CTD (mouse Ptc with a 140-residue carboxyl-terminal deletion; amino acids 1-1,291) (mouse) (UniProt Q61115) (assay: Scatchard analysis of the high-affinity component of 32P-Shh-N binding to EcR-293 cells expressing Ptc-CTD, 4 C).

Substance | Kd
32P-labeled Shh-N protein with a protein kinase A site tag (RRASV) at the carboxy terminus (from UniProt Q62226 25-198) (ligand) | 0.48 nM

What follows are substances tested against carboxyl-terminal Myc-tagged Ptc-CTD (mouse Ptc with a 140-residue carboxyl-terminal deletion; amino acids 1-1,291) (mouse) (UniProt Q61115) (assay: Table 1 'Ptc-CTD affinity'; for wild type the dissociation constant (KL), as from the Scatchard analysis of 32P-Shh-N on EcR-293 cells expressing Ptc-CTD).

Substance | Kd
wild-type Sonic hedgehog amino-terminal signaling domain protein (Shh-N), aa 25-198 (from UniProt Q62226 25-198) (ligand) | 0.48 nM
